Reference: the supplement of paper PMC10567573

B1: CDC25A (parent)
chain: QLIDPDENKENEAFEFKKPVRPVS

Variants of: B1
Assay: protein stability index of a GFP-peptide fusion (GPS, HEK-293T) (PSI 1-6); higher = more stable
Settings: c terminus: a fixed tail appended
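Also: lentivirally expressed fusions sorted by FACS into six bins by GFP to DsRed ratio, PSI derived from sequencing read proportions per bin multiplied by bin number.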

With QLIDPDENKENTAFEFKKPVRPVS [E12T] as the variant, how does the protein stability index read?
Its protein stability index is 3.94.

Which protein stability index does the source give for QLIDPDENKENNAFEFKKPVRPVS [E12N] here?
Its protein stability index is 3.27.

With QLIDPDENKENEAFEFVKPVRPVS [K17V] as the variant, how does the protein stability index read?
The protein stability index was 3.98.

For QLIDPDENKENEAFEFIKPVRPVS [K17I], which protein stability index is on record?
The protein stability index was 3.54.

With QLIDPDENKENEAFEFSKPVRPVS [K17S] as the variant, how does the protein stability index read?
The protein stability index was 3.48.

For QLIDPDENKENEAFEFTKPVRPVS [K17T], which protein stability index is on record?
The protein stability index was 3.58.

With QLIDPDENKENEAFEFHKPVRPVS [K17H] as the variant, how does the protein stability index read?
Its protein stability index is 3.84.

For QLIDPDENKENEAFEFRKPVRPVS [K17R], which protein stability index is on record?
Its protein stability index is 3.78.

For QLIDPDENKENEAFEFWKPVRPVS [K17W], which protein stability index is on record?
The protein stability index was 3.43.

With QLIDPDENKENEAFEFGKPVRPVS [K17G] as the variant, how does the protein stability index read?
The protein stability index was 3.91.

Which protein stability index does the source give for QLIDPDENKENEAFEFNKPVRPVS [K17N] here?
The protein stability index was 3.15.

Which protein stability index does the source give for QLIDPDENKENEAFEFPKPVRPVS [K17P] here?
Its protein stability index is 4.27.

Which protein stability index does the source give for QLIDPDENKENEAFEFEKPVRPVS [K17E] here?
The protein stability index was 3.46.

With QLIDPDENKENEAFEFCKPVRPVS [K17C] as the variant, how does the protein stability index read?
The protein stability index was 2.78.

With QLIDPDENKENEAFEFAKPVRPVS [K17A] as the variant, how does the protein stability index read?
The protein stability index was 4.44.

With QLIDPDENKENEAFEFYKPVRPVS [K17Y] as the variant, how does the protein stability index read?
The protein stability index was 3.7.

For QLIDPDENKENEAFEFQKPVRPVS [K17Q], which protein stability index is on record?
Its protein stability index is 4.03.

For QLIDPDENKENEAFEFMKPVRPVS [K17M], which protein stability index is on record?
The protein stability index was 3.03.

For QLIDPDENKENEAFEFLKPVRPVS [K17L], which protein stability index is on record?
The protein stability index was 3.36.

For QLIDPDENKENEAFEFFKPVRPVS [K17F], which protein stability index is on record?
The protein stability index was 3.88.

For QLIDPDENKQNEAFEFKKPVRPVS [E10Q], which protein stability index is on record?
The protein stability index was 4.29.

With QLIDPDENKFNEAFEFKKPVRPVS [E10F] as the variant, how does the protein stability index read?
The protein stability index was 3.12.

Which protein stability index does the source give for QLIDPDENKVNEAFEFKKPVRPVS [E10V] here?
The protein stability index was 3.36.

With QLIDPDENKMNEAFEFKKPVRPVS [E10M] as the variant, how does the protein stability index read?
The protein stability index was 3.71.

With QLIDPDENKKNEAFEFKKPVRPVS [E10K] as the variant, how does the protein stability index read?
Its protein stability index is 4.35.

Which protein stability index does the source give for QLIDPDENKYNEAFEFKKPVRPVS [E10Y] here?
The protein stability index was 4.78.

For QLIDPDENKANEAFEFKKPVRPVS [E10A], which protein stability index is on record?
The protein stability index was 4.25.

With QLIDPDENKRNEAFEFKKPVRPVS [E10R] as the variant, how does the protein stability index read?
Its protein stability index is 4.43.

Which protein stability index does the source give for QLIDPDENKSNEAFEFKKPVRPVS [E10S] here?
The protein stability index was 4.2.

For QLIDPDENKPNEAFEFKKPVRPVS [E10P], which protein stability index is on record?
The protein stability index was 3.1.

With QLIDPDENKLNEAFEFKKPVRPVS [E10L] as the variant, how does the protein stability index read?
Its protein stability index is 3.97.

For QLIDPDENKWNEAFEFKKPVRPVS [E10W], which protein stability index is on record?
The protein stability index was 4.02.

Which protein stability index does the source give for QLIDPDENKCNEAFEFKKPVRPVS [E10C] here?
The protein stability index was 3.84.

With QLIDPDENKNNEAFEFKKPVRPVS [E10N] as the variant, how does the protein stability index read?
Its protein stability index is 3.78.

With QLIDPDENKDNEAFEFKKPVRPVS [E10D] as the variant, how does the protein stability index read?
The protein stability index was 3.98.

With QLIDPDENKTNEAFEFKKPVRPVS [E10T] as the variant, how does the protein stability index read?
Its protein stability index is 4.3.

Which protein stability index does the source give for QLIDPDENKINEAFEFKKPVRPVS [E10I] here?
The protein stability index was 4.13.

For QLIDPDENKGNEAFEFKKPVRPVS [E10G], which protein stability index is on record?
Its protein stability index is 4.33.

For QLIDPDENKENECFEFKKPVRPVS [A13C], which protein stability index is on record?
Its protein stability index is 3.52.

Which protein stability index does the source give for QLIDPDENKENETFEFKKPVRPVS [A13T] here?
The protein stability index was 3.9.

Which protein stability index does the source give for QLIDPDENKENEGFEFKKPVRPVS [A13G] here?
The protein stability index was 3.71.

With QLIDPDENKENESFEFKKPVRPVS [A13S] as the variant, how does the protein stability index read?
The protein stability index was 3.85.

Which protein stability index does the source give for QLIDPDENKENEMFEFKKPVRPVS [A13M] here?
Its protein stability index is 4.11.

With QLIDPDENKENEDFEFKKPVRPVS [A13D] as the variant, how does the protein stability index read?
The protein stability index was 4.34.

For QLIDPDENKENEWFEFKKPVRPVS [A13W], which protein stability index is on record?
Its protein stability index is 3.02.

With QLIDPDENKENEPFEFKKPVRPVS [A13P] as the variant, how does the protein stability index read?
Its protein stability index is 4.25.

Which protein stability index does the source give for QLIDPDENKENELFEFKKPVRPVS [A13L] here?
The protein stability index was 3.73.

Which protein stability index does the source give for QLIDPDENKENEHFEFKKPVRPVS [A13H] here?
Its protein stability index is 3.26.

Which protein stability index does the source give for QLIDPDENKENEYFEFKKPVRPVS [A13Y] here?
Its protein stability index is 3.99.

With QLIDPDENKENEQFEFKKPVRPVS [A13Q] as the variant, how does the protein stability index read?
The protein stability index was 4.02.

For QLIDPDENKENEFFEFKKPVRPVS [A13F], which protein stability index is on record?
Its protein stability index is 3.02.

With QLIDPDENKENENFEFKKPVRPVS [A13N] as the variant, how does the protein stability index read?
The protein stability index was 3.77.

With QLIDPDENKENEKFEFKKPVRPVS [A13K] as the variant, how does the protein stability index read?
Its protein stability index is 3.63.

For QLIDPDENKENEEFEFKKPVRPVS [A13E], which protein stability index is on record?
Its protein stability index is 3.57.

For QLIDPDENKENERFEFKKPVRPVS [A13R], which protein stability index is on record?
Its protein stability index is 3.24.

Which protein stability index does the source give for QLIDPDENKENEVFEFKKPVRPVS [A13V] here?
The protein stability index was 2.88.

For QLIDPDENKENEIFEFKKPVRPVS [A13I], which protein stability index is on record?
Its protein stability index is 4.23.

With QLIDPDEDKENEAFEFKKPVRPVS [N8D] as the variant, how does the protein stability index read?
Its protein stability index is 4.28.

With QLIDPDEYKENEAFEFKKPVRPVS [N8Y] as the variant, how does the protein stability index read?
The protein stability index was 3.59.

For QLIDPDECKENEAFEFKKPVRPVS [N8C], which protein stability index is on record?
The protein stability index was 4.45.

With QLIDPDEFKENEAFEFKKPVRPVS [N8F] as the variant, how does the protein stability index read?
Its protein stability index is 4.08.

With QLIDPDELKENEAFEFKKPVRPVS [N8L] as the variant, how does the protein stability index read?
Its protein stability index is 4.52.

With QLIDPDEEKENEAFEFKKPVRPVS [N8E] as the variant, how does the protein stability index read?
The protein stability index was 3.95.

For QLIDPDESKENEAFEFKKPVRPVS [N8S], which protein stability index is on record?
The protein stability index was 4.05.

For QLIDPDEAKENEAFEFKKPVRPVS [N8A], which protein stability index is on record?
The protein stability index was 4.31.

Which protein stability index does the source give for QLIDPDEVKENEAFEFKKPVRPVS [N8V] here?
Its protein stability index is 4.94.

Which protein stability index does the source give for QLIDPDEGKENEAFEFKKPVRPVS [N8G] here?
Its protein stability index is 5.06.

Which protein stability index does the source give for QLIDPDETKENEAFEFKKPVRPVS [N8T] here?
Its protein stability index is 4.61.

Which protein stability index does the source give for QLIDPDEKKENEAFEFKKPVRPVS [N8K] here?
The protein stability index was 4.5.

For QLIDPDEQKENEAFEFKKPVRPVS [N8Q], which protein stability index is on record?
Its protein stability index is 4.95.

Which protein stability index does the source give for QLIDPDEIKENEAFEFKKPVRPVS [N8I] here?
The protein stability index was 4.7.

Which protein stability index does the source give for QLIDPDERKENEAFEFKKPVRPVS [N8R] here?
Its protein stability index is 4.86.

For QLIDPDEHKENEAFEFKKPVRPVS [N8H], which protein stability index is on record?
Its protein stability index is 4.59.

Which protein stability index does the source give for QLIDPDEPKENEAFEFKKPVRPVS [N8P] here?
Its protein stability index is 4.28.

With QLIDPDEMKENEAFEFKKPVRPVS [N8M] as the variant, how does the protein stability index read?
The protein stability index was 4.09.

For QLIDPDENKENEAFEHKKPVRPVS [F16H], which protein stability index is on record?
Its protein stability index is 4.56.

Which protein stability index does the source give for QLIDPDENKENEAFEGKKPVRPVS [F16G] here?
The protein stability index was 3.76.

Which protein stability index does the source give for QLIDPDENKENEAFEMKKPVRPVS [F16M] here?
The protein stability index was 3.73.

For QLIDPDENKENEAFEPKKPVRPVS [F16P], which protein stability index is on record?
Its protein stability index is 3.83.

With QLIDPDENKENEAFERKKPVRPVS [F16R] as the variant, how does the protein stability index read?
The protein stability index was 4.53.

Which protein stability index does the source give for QLIDPDENKENEAFEDKKPVRPVS [F16D] here?
The protein stability index was 4.46.

With QLIDPDENKENEAFENKKPVRPVS [F16N] as the variant, how does the protein stability index read?
Its protein stability index is 4.08.

For QLIDPDENKENEAFEYKKPVRPVS [F16Y], which protein stability index is on record?
The protein stability index was 3.58.

For QLIDPDENKENEAFECKKPVRPVS [F16C], which protein stability index is on record?
The protein stability index was 4.6.

With QLIDPDENKENEAFETKKPVRPVS [F16T] as the variant, how does the protein stability index read?
The protein stability index was 4.48.

For QLIDPDENKENEAFESKKPVRPVS [F16S], which protein stability index is on record?
The protein stability index was 4.21.

With QLIDPDENKENEAFEVKKPVRPVS [F16V] as the variant, how does the protein stability index read?
Its protein stability index is 4.39.

With QLIDPDENKENEAFEQKKPVRPVS [F16Q] as the variant, how does the protein stability index read?
Its protein stability index is 3.73.

With QLIDPDENKENEAFEKKKPVRPVS [F16K] as the variant, how does the protein stability index read?
Its protein stability index is 3.99.

With QLIDPDENKENEAFEAKKPVRPVS [F16A] as the variant, how does the protein stability index read?
The protein stability index was 4.03.

With QLIDPDENKENEAFELKKPVRPVS [F16L] as the variant, how does the protein stability index read?
The protein stability index was 4.56.

For QLIDPDENKENEAFEIKKPVRPVS [F16I], which protein stability index is on record?
The protein stability index was 3.35.

For QLIDPDENKENEAFEWKKPVRPVS [F16W], which protein stability index is on record?
Its protein stability index is 4.33.

Which protein stability index does the source give for QLIDPDENKENEAFEEKKPVRPVS [F16E] here?
The protein stability index was 4.18.
